# From PMC11404569, “ECT2 peptide sequences outside the YTH domain regulate its m6A-RNA binding”
# B1: Probe I (A) (ssRNA)
# RNA: AUGGGCCGUUCAUCUGCUAAAAGGACUGCUUUUGGGGCUUGU
# modifications: thiol-protected 3' bases (*G*U)
# B2: Probe I m6A (ssRNA)
# RNA: B1 RNA
# modifications: m6A at position 25; thiol-protected 3' bases (*G*U)
# B3: Probe III (A) (ssRNA)
# RNA: AAGGGCCGAACAACAGCAAAAAGGACUGCAAAAGGGGCAAGA
# modifications: thiol-protected 3' bases (*G*A)
# B4: Probe III m6A (ssRNA)
# RNA: B3 RNA
# modifications: m6A at position 25; thiol-protected 3' bases (*G*A)
# B5: Probe IV (A) (ssRNA)
# RNA: AUGUGUCUUUCAUGUACUAAAAGGACUGCUCUUGUGUCUUGU
# modifications: thiol-protected 3' bases (*G*U)
# B6: Probe IV m6A (ssRNA)
# RNA: B5 RNA
# modifications: m6A at position 25; thiol-protected 3' bases (*G*U)
# Tests used:
# ECT2-Fl (untagged) = biological target: T1, ECT2-Fl (untagged) (Arabidopsis thaliana, UniProt Q9LJE5 1-667); test: EMSA; up to 500 nM; EMSA: 10 nM FAM-RNA; binding buffer 10 mM HEPES pH 8.0, 50 mM KCl, 1 mM EDTA, 0.05% Triton X-100, 5% glycerol, 10 µg/mL salmon DNA, 1 mM DTT, 40 U/mL RNasin; 20 min on ice; native 8% acrylamide TBE gel at 4°C; conditions: protein: recombinant; tags: none (His-SUMO cleaved by TEV); label: 5' FAM
# T1 sequence: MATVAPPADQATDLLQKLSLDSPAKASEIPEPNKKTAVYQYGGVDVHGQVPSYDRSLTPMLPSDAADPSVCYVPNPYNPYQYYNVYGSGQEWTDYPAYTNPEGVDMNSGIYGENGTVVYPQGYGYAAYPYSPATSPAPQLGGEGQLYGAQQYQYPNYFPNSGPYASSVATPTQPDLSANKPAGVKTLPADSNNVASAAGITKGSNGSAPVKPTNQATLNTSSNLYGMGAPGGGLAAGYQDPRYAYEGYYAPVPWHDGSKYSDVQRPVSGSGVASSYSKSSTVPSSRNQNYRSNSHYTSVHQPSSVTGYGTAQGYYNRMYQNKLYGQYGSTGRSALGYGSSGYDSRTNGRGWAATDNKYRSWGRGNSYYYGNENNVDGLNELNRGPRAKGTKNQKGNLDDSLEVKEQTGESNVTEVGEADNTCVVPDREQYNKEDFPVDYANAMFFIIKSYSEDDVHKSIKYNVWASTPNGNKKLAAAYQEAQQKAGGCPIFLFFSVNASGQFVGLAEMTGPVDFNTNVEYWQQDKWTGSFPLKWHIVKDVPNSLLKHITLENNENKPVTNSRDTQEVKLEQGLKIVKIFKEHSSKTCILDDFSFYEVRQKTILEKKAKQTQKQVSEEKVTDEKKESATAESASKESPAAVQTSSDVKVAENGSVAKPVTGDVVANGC
# ECT2-108 [1] = biological target: T2, ECT2-108 (Arabidopsis thaliana, UniProt Q9LJE5 108-667); test: as above; conditions: protein: recombinant; tags: N-terminal His-SUMO; label: 5' FAM
# T2 sequence: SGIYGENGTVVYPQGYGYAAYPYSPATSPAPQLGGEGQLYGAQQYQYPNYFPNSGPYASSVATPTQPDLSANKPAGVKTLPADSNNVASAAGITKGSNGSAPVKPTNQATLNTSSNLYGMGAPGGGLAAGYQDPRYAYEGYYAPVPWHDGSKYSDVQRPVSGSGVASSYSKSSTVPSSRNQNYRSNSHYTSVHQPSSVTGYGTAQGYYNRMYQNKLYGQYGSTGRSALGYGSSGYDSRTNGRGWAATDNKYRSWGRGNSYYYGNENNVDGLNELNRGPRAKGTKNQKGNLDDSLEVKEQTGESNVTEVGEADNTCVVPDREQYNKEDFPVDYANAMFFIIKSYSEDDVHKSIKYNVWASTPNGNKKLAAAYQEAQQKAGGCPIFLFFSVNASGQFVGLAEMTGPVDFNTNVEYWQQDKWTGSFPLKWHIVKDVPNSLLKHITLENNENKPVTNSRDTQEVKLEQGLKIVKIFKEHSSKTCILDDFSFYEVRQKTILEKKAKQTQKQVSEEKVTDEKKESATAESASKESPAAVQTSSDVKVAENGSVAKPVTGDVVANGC
# ECT2-303 [2] = biological target: T3, ECT2-303 (Arabidopsis thaliana, UniProt Q9LJE5 303-667); test: as above; conditions: protein: recombinant; tags: N-terminal His-SUMO; label: 5' FAM
# T3 sequence: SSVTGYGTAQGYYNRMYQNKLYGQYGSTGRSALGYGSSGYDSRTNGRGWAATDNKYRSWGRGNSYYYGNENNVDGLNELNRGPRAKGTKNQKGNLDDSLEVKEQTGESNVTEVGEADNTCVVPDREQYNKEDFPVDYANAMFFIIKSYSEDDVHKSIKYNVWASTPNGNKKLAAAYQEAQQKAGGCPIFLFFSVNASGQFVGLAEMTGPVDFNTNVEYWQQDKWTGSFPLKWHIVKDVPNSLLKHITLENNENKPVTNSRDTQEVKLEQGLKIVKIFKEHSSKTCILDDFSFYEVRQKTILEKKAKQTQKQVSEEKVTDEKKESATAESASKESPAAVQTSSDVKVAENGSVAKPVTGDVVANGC
# [3] = biological target: YTHDC1 extended YTH (hDC1) (Homo sapiens, UniProt Q96MU7 345-507); test: EMSA; up to 400 nM; EMSA: 10 nM FAM-RNA; binding buffer 10 mM HEPES pH 8.0, 50 mM KCl, 1 mM EDTA, 0.05% Triton X-100, 5% glycerol, 10 µg/mL salmon DNA, 1 mM DTT, 40 U/mL RNasin; 20
# ECT2-444 = biological target: T4, ECT2-444 (Arabidopsis thaliana, UniProt Q9LJE5 444-580); test: EMSA; up to 800 nM; EMSA: 10 nM FAM-RNA; binding buffer 10 mM HEPES pH 8.0, 50 mM KCl, 1 mM EDTA, 0.05% Triton X-100, 5% glycerol, 10 µg/mL salmon DNA, 1 mM DTT, 40 U/mL RNasin; 20 min on ice; native 8% acrylamide TBE gel at 4°C; conditions: protein: recombinant; tags: N-terminal His-SUMO; label: 5' FAM
# T4 sequence: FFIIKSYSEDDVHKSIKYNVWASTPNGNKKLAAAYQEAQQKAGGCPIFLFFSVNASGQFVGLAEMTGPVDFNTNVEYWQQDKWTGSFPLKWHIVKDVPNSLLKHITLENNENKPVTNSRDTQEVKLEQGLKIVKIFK
# ECT2-204 = biological target: T5, ECT2-204 (Arabidopsis thaliana, UniProt Q9LJE5 204-667); test: EMSA; EMSA: 10 nM FAM-RNA; binding buffer 10 mM HEPES pH 8.0, 50 mM KCl, 1 mM EDTA, 0.05% Triton X-100, 5% glycerol, 10 µg/mL salmon DNA, 1 mM DTT, 40 U/mL RNasin; 20 min on ice; native 8% acrylamide TBE gel at 4°C; conditions: protein: recombinant; tags: N-terminal His-SUMO; label: 5' FAM
# T5 sequence: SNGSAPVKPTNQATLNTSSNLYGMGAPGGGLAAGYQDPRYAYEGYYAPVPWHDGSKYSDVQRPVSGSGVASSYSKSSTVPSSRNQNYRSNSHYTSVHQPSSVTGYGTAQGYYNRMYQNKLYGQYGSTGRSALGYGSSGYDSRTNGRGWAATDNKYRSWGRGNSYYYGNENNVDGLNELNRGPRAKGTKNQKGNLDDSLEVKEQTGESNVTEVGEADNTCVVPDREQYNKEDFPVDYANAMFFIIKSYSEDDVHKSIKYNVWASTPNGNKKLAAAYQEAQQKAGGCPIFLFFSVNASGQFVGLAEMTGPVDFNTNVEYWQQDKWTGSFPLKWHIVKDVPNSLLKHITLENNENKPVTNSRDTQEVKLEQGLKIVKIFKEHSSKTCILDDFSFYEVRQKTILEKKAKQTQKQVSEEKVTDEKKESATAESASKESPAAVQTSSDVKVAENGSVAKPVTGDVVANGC
# ECT2-303 [4] = biological target: T3, ECT2-303; test: EMSA; apparent Kd from free probe; EMSA: 10 nM FAM-RNA; binding buffer 10 mM HEPES pH 8.0, 50 mM KCl, 1 mM EDTA, 0.05% Triton X-100, 5% glycerol, 10 µg/mL salmon DNA, 1 mM DTT, 40 U/mL RNasin; 20 min on ice; native 8% acrylamide TBE gel at 4°C; conditions: protein: recombinant; tags: N-terminal His-SUMO; label: 5' FAM
# ECT2-108 [5] = biological target: T2, ECT2-108; test: EMSA; affinity similar to ECT2-204; EMSA: 10 nM FAM-RNA; binding buffer 10 mM HEPES pH 8.0, 50 mM KCl, 1 mM EDTA, 0.05% Triton X-100, 5% glycerol, 10 µg/mL salmon DNA, 1 mM DTT, 40 U/mL RNasin; 20 min on ice; native 8% acrylamide TBE gel at 4°C; conditions: protein: recombinant; tags: N-terminal His-SUMO; label: 5' FAM
# ECT2-376 = biological target: T6, ECT2-376 (Arabidopsis thaliana, UniProt Q9LJE5 376-667); test: EMSA; no stable complex; EMSA: 10 nM FAM-RNA; binding buffer 10 mM HEPES pH 8.0, 50 mM KCl, 1 mM EDTA, 0.05% Triton X-100, 5% glycerol, 10 µg/mL salmon DNA, 1 mM DTT, 40 U/mL RNasin; 20 min on ice; native 8% acrylamide TBE gel at 4°C; conditions: protein: recombinant; tags: N-terminal His-SUMO; label: 5' FAM
# T6 sequence: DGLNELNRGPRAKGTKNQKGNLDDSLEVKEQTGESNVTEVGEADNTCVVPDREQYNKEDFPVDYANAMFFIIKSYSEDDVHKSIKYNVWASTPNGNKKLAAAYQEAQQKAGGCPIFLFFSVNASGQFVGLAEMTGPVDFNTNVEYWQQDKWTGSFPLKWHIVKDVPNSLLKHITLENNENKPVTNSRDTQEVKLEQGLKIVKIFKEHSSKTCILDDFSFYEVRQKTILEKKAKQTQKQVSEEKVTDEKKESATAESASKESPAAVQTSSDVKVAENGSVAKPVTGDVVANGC
# ECT2-424 (His-SUMO) = biological target: T7, ECT2-424 (His-SUMO) (Arabidopsis thaliana, UniProt Q9LJE5 424-610); test: as above; conditions: protein: recombinant; tags: N-terminal His-SUMO; label: 5' FAM
# T7 sequence: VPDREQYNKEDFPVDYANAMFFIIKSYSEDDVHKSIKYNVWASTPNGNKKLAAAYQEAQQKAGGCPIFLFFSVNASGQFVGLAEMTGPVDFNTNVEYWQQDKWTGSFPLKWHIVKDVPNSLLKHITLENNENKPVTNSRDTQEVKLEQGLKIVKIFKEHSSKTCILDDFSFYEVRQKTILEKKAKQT
Binder,binding result (ECT2-303 [2]),Kd (ECT2-303 [4]),binding result (ECT2-376),binding result (ECT2-424 (His-SUMO)),further results
B1,no binding,,,,binding result (ECT2-Fl (untagged)): no binding; binding result (ECT2-108 [1]): no binding
B2,,55 ± 7 nM,,,binding result [3]: binds; binding result (ECT2-444): no binding; binding signal (ECT2-204): ~5 fold Kd vs ECT2-303; binding signal (ECT2-108 [5]): ~3 fold Kd vs ECT2-Fl
B3,no binding,,no binding,no binding,
B4,,39 ± 2 nM,,,
B5,,,no binding,no binding,
B6,,85 ± 5 nM,,,
